In patent US20150045310A1 (TRUSTEES OF PRINCETON UNIVERSITY, published 2015):
Like-named read-outs stand apart in the source and are kept apart here. Bridges are numbered along the chain shown (N, C = ends). Where no end group is shown, it is not given here. [ ]: non-standard residue; d: D form. eCPX = enhanced circularly permuted OmpX display scaffold; S5 = C=CCCC[C@](C)(N)C(=O)O; linker = not defined here

T1: Bcl-w (biotinylated pro-survival Bcl-2 family protein) (UniProt Q92843 1-164, limits assumed, biotinylated (co-expressed E. coli biotin ligase BirA))
T1 sequence (looked up): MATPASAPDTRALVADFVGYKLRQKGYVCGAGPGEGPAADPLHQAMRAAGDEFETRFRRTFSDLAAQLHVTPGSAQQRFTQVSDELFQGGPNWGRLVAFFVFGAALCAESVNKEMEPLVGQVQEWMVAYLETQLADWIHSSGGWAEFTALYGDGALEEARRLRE


Experiments:
[1] = target: T2, Mcl-1 (biotinylated pro-survival Bcl-2 family protein) (UniProt Q07820 171-327, limits assumed, biotinylated (co-expressed E. coli biotin ligase BirA)); test: cell-based or functional assay
[2] = target: T2, Mcl-1 (biotinylated pro-survival Bcl-2 …); test: cell-based or functional assay; remark: listed apart in the source
[3] = target: T2, Mcl-1 (biotinylated pro-survival Bcl-2 …); test: cell-based or functional assay; remark: listed apart in the source
[4] = target: T2, Mcl-1 (biotinylated pro-survival Bcl-2 …); test: cell-based or functional assay; remark: listed apart in the source
[5] = target: T2, Mcl-1 (biotinylated pro-survival Bcl-2 …); test: cell-based or functional assay; remark: listed apart in the source
[6] = target: T3, Bcl-xL (biotinylated pro-survival Bcl-2 family protein) (UniProt Q07817 1-209, biotinylated (co-expressed E. coli biotin ligase BirA)); test: flow cytometry of E. coli displaying the peptide on eCPX, biotinylated target + streptavidin-PE; apparent Kd
Experimental: (§1) All binding assays were performed using MC1061 strain. Briefly, a 5 mL culture of a library sample or individual variant was grown to OD₆₀₀˜0.6, and induced with arabinose (0.2%) at RT for 2.5 hours. Cells were pelleted (1 mL culture, 6000 rpm, 5 min) and resuspended in 1 mL PBS. A portion of the cell suspension (50 μL) was mixed with the desired concentration of pro-survival protein to a total volume of 500 μL. The mixture was allowed to rotate at room temperature for 1 hour for equilibrium binding. The cells were pelleted again (6000 rpm, 20 min), resuspended with 100 μL of 50 nM streptavidin-phycoerythrin (SAPE), and incubated on ice in the dark for 30 min. After a final centrifugation, the cell pellets were stored on ice and resuspended in 2 mL of PBS for flow cytometry measurements. A Partec CyFlow ML Flow Cytometer equipped with a 488 nm laser was used to analyze the cells. A FACSVantage SE cell sorter was used for cell sorting in single cell mode.
(§2) A two parameter model was used to extract apparent binding affinity (Kd) from flow cytometry binding experiments.

[7] = target: Bcl-2 (biotinylated pro-survival Bcl-2 family protein) (UniProt P10415 1-217, limits assumed, biotinylated (co-expressed E. coli biotin ligase BirA)); test: as above
Experimental: as §1, §2

[8] = target: T1, Bcl-w (biotinylated pro-survival Bcl-2 …); test: as above
Experimental: as §1, §2

[9] = target: T2, Mcl-1 (biotinylated pro-survival Bcl-2 …); test: as above
Experimental: as §1, §2

[10] = target: T3, Bcl-xL (biotinylated pro-survival Bcl-2 …); test: as above; remark: listed apart in the source
Experimental: as §1, §2

[11] = target: T2, Mcl-1 (biotinylated pro-survival Bcl-2 …); test: as above; remark: listed apart in the source
Experimental: as §1, §2

[12] = target: T2, Mcl-1 (biotinylated pro-survival Bcl-2 …); test: apparent Kd, bacterial surface display and flow cytometry
Experimental: as §1, §2

[13] = target: T3, Bcl-xL (biotinylated pro-survival Bcl-2 …); test: as above
Experimental: as §1, §2

T3 sequence (Q07817 1-209): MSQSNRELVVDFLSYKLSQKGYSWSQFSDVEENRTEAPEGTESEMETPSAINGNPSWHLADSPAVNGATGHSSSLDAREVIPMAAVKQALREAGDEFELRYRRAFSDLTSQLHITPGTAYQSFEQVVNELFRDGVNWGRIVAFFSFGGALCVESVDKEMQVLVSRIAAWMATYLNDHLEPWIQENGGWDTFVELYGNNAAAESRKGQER
T2 sequence (Q07820 171-327 limits assumed): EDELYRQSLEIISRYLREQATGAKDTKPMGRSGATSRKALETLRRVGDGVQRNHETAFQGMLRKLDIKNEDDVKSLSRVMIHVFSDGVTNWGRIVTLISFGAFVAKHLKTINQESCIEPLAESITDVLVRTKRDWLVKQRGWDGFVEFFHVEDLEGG
Chain of Bcl-2 (biotinylated pro-survival Bcl-2 family protein) (P10415 1-217 limits assumed): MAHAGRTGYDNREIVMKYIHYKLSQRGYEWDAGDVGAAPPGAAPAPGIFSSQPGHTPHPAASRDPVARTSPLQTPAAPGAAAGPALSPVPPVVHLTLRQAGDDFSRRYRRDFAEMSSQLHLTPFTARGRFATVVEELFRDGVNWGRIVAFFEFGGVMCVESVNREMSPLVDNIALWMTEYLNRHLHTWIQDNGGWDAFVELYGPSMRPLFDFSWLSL

Binder	Kd [6] [nM]	Kd [7] [nM]	Kd [8] [nM]	Kd [9] [nM]	Kd [10] [nM]	Kd [11] [nM]	other results
WVAQLLR[S5]IGD[S5]VN-NH2 (staple 8-12; N-terminus assumed; SMILES CC[C@H](C)[C@@H]1NC(=O)[C@@](C)(NC(=O)[C@H](CCCNC(=N)N)NC(=O)[C@H](CC(C)C)NC(=O)[C@H](CC(C)C)NC(=O)[C@H](CCC(N)=O)NC(=O)[C@H](C)NC(=O)[C@@H](NC(=O)[C@@H](N)Cc2c[nH]c3ccccc23)C(C)C)CCCC=CCCC[C@@](C)(C(=O)N[C@H](C(=O)N[C@@H](CC(N)=O)C(N)=O)C(C)C)NC(=O)[C@H](CC(=O)O)NC(=O)CNC1=O) [stapled M2-2 peptide]	–	–	–	–	–	–	IC50 (µM), MTT cytotoxicity assay, MDA231 cells [1]: 3.7 µM; IC50 (µM), MTT cytotoxicity assay, PC3 cells [2]: 4.7 µM; IC50 (µM), MTT cytotoxicity assay, MCF7 cells [3]: 5.7 µM; IC50 (µM), MTT cytotoxicity assay, HeLa cells [4]: 6.1 µM
WLAQLLR[S5]IGD[S5]IN-NH2 (staple 8-12; N-terminus assumed; SMILES CC[C@H](C)[C@@H]1NC(=O)[C@@](C)(NC(=O)[C@H](CCCNC(=N)N)NC(=O)[C@H](CC(C)C)NC(=O)[C@H](CC(C)C)NC(=O)[C@H](CCC(N)=O)NC(=O)[C@H](C)NC(=O)[C@H](CC(C)C)NC(=O)[C@@H](N)Cc2c[nH]c3ccccc23)CCCC=CCCC[C@@](C)(C(=O)N[C@H](C(=O)N[C@@H](CC(N)=O)C(N)=O)[C@@H](C)CC)NC(=O)[C@H](CC(=O)O)NC(=O)CNC1=O) [stapled M2-4 peptide]	–	–	–	–	–	–	IC50 (µM), MTT cytotoxicity assay, MDA231 cells [1]: 4.4 µM; IC50 (µM), cytotoxicity, HeLa cells [5]: 1.04 µM; IC50 (µM), cytotoxicity, MCF7 cells [5]: 5.72 µM; IC50 (µM), cytotoxicity, MDA231 cells [5]: 4.39 µM; IC50 (µM), cytotoxicity, PC3 cells [5]: 1.36 µM; IC50 (µM), MTT cytotoxicity assay, PC3 cells [2]: 1.4 µM; IC50 (µM), MTT cytotoxicity assay, MCF7 cells [3]: 5.7 µM; IC50 (µM), MTT cytotoxicity assay, HeLa cells [4]: 1 µM
WIAQELRRIGDEFN-{linker-eCPX} (reading uncertain, also called WT; Bim WT; not shown: eCPX (enhanced circularly permuted OmpX) display scaffold and its linker, fused C-terminal to the peptide) [wild-type Bim BH3 14-mer peptide (residues 147-160) displayed on eCPX]	251	97.9	594	37.7	251	37.7	–
WIAQILRRIGDEFN (also called E1511; Bim E151I; not shown: eCPX display scaffold and the linker to it) [Bim BH3 14-mer E151I displayed on eCPX]	–	–	–	–	–	–	fold increase in apparent affinity against wild-type Bim 14-mer [12]: 2 fold
WIAQLLRRIGDEFN (also called Bim E151L; pSZ55; not shown: eCPX display scaffold and the linker to it) [Bim BH3 14-mer E151L displayed on eCPX]	–	–	–	–	–	–	fold increase in apparent affinity against wild-type Bim 14-mer [12]: 2 fold
WIAQQLRRIGDEFN (not fully specified, also called pseudo-wild-type Bim; Bim E151Q; not shown: eCPX display scaffold and the linker to it) [Bim BH3 14-mer E151Q (pseudo-wild-type) displayed on eCPX]	47.4	175	642	45.2	–	–	fold increase in apparent affinity against wild-type Bim 14-mer [13]: 5 fold
WIAQLLRRIGDEVN-{linker-eCPX} (reading uncertain; also: printed as Trp-Ile-Ala-Gln-Leu-Leu-Arg-Arg-Ile-Gly-Asp-Glu-Val-Asn, Clone selected against Mcl-1; not shown: eCPX display scaffold and its linker, fused C-terminal to the peptide) [Bim BH3 14-mer variant M2-1 displayed on eCPX]	–	–	–	–	–	10.3	–
WVAQLLRRIGDEVN-{linker-eCPX} (reading uncertain; also: printed as Trp-Val-Ala-Gln-Leu-Leu-Arg-Arg-Ile-Gly-Asp-Glu-Val-Asn, Clone selected against Mcl-1; not shown: eCPX display scaffold and its linker, fused C-terminal to the peptide) [Bim BH3 14-mer variant M2-2 displayed on eCPX]	2800	–	–	5.8	–	5.8	fold increase in apparent affinity against wild-type Bim 14-mer [12]: 6 fold
WVAQWLRRWGDEFN (also: displayed as fusion to eCPX scaffold (letters not given here), Clone selected against Bcl-xL; not shown: eCPX display scaffold and the linker to it) [Bim BH3 14-mer variant X2-3 displayed on eCPX]	9.28	929	5890	1300	9.28	–	fold increase in apparent affinity against wild-type Bim 14-mer [13]: 25 fold
WVAQTLRRWGDEFN-{linker-eCPX} (reading uncertain; also: printed as Trp-Val-Ala-Gln-Thr-Leu-Arg-Arg-Trp-Gly-Asp-Glu-Phe-Asn, Clone selected against Bcl-xL; not shown: eCPX display scaffold and its linker, fused C-terminal to the peptide) [Bim BH3 14-mer variant X2-10 displayed on eCPX]	–	–	–	–	17	–	–
WLAQLLRRYGDEFN (also: displayed as fusion to eCPX scaffold (letters not given here), Clone selected against Bcl-xL; not shown: eCPX display scaffold and the linker to it) [Bim BH3 14-mer variant X2-8 displayed on eCPX]	17.8	2350	946	2580	17.8	–	–
WLAQLLRRIGDEIN-{linker-eCPX} (reading uncertain; also: printed as Trp-Leu-Ala-Gln-Leu-Leu-Arg-Arg-Ile-Gly-Asp-Glu-Ile-Asn, Clone selected against Mcl-1; not shown: eCPX display scaffold and its linker, fused C-terminal to the peptide) [Bim BH3 14-mer variant M2-4 displayed on eCPX]	333	93.7	542	9.85	–	9.85	–
WMAQILRRIGDEVN-{linker-eCPX} (reading uncertain; also: printed as Trp-Met-Ala-Gln-Ile-Leu-Arg-Arg-Ile-Gly-Asp-Glu-Val-Asn, Clone selected against Mcl-1; not shown: eCPX display scaffold and its linker, fused C-terminal to the peptide) [Bim BH3 14-mer variant M2-3 displayed on eCPX]	–	–	–	–	–	11.5	–
